B1: EccB5 (natural protein)
chain: MAEESRGQRGSGYGLGLSTRTQVTGYQFLARRTAMALTRWRVRMEIEPGRRQTLAVVASVSAALVICLGALLWSFISPSGQLNESPIIADRDSGALYVRVGDRLYPALNLASARLITGRPDNPHLVRSSQIATMPRGPLVGIPGAPSSFSPKSPPASSWLVCDTVATSSSIGSLQGVTVTVIDGTPDLTGHRQILSGSDAVVLRYGGDAWVIREGRRSRIEPTNRAVLLPLGLTPEQVSQARPMSRALFDALPVGPELLVPEVPNAGGPATFPGAPGPIGTVIVTPQISGPQQYSLVLGDGVQTLPPLVAQILQNAGSAGNTKPLTVEPSTLAKMPVVNRLDLSAYPDNPLEVVDIREHPSTCWWWERTAGENRARVRVVSGPTIPVAATEMNKVVSLVKADTSGRQADQVYFGPDHANFVAVTGNNPGAQTSESLWWVTDAGARFGVEDSKEARDALGLTLTPSLAPWVALRLLPQGPTLSRADALVEHDTLPMDMTPAELVVPK
notes: also called inner EccB5; outer EccB5
B2: MycP5 protease (enzyme)
chain: ISPPTIDPGALPPDGPPGPLAPMKQNAYCTEVGVLPGTDFQLQPKYMEMLNLNEAWQFGRGDGVKVAVIDTGVTPHPRLPRLIPGGDYVMAGGDGLSDCDAHGTLVASMIAAVPANGAVPLPSVPRRPVTIPTTETPPPPQTVTLSPVPPQTVTVIPAPPPEEGVPPGAPVPGPEPPPAPGPQPPAVDRGGGTVTVPSYSGGRKIAPIDNPRNPHPSAPSPALGPPPDAFSGIAPGVEIISIRQSSQAFGLKDPYTGDEDPQTAQKIDNVETMARAIVHAANMGASVINISDVMCMSARNVIDQRALGAAVHYAAVDKDAVIVAAAGDGSKKDCKQNPIFDPLQPDDPRAWNAVTTVVTPSWFHDYVLTVGAVDANGQPLSKMSIAGPWVSISAPGTDVVGLSPRDDGLINAIDGPDNSLLVPAGTSFSAAIVSGVAALVRAKFPELSAYQIINRLIHTARPPARGVDNQVGYGVVDPVAALTWDVPKGPAEPPKQLSAPLVVPQPPAPRDMVPIWVAAGGLAGALLIGGAVFGTATLMRRSRKQQ
notes: also called mycosin
B3: EccC5 (natural protein)
chain: MKRGFARPTPEKPPVIKPENIVLSTPLSIPPPEGKPWWLIVVGVVVVGLLGGMVAMVFASGSHVFGGIGSIFPLFMMVGIMMMMFRGMGGGQQQMSRPKLDAMRAQFMLMLDMLRETAQESADSMDANYRWFHPAPNTLAAAVGSPRMWERKPDGKDLNFGVVRVGVGMTRPEVTWGEPQNMPTDIELEPVTGKALQEFGRYQSVVYNLPKMVSLLVEPWYALVGEREQVLGLMRAIICQLAFSHGPDHVQMIVVSSDLDQWDWVKWLPHFGDSRRHDAAGNARMVYTSVREFAAEQAELFAGRGSFTPRHASSSAQTPTPHTVIIADVDDPQWEYVISAEGVDGVTFFDLTGSSMWTDIPERKLQFDKTGVIEALPRDRDTWMVIDDKAWFFALTDQVSIAEAEEFAQKLAQWRLAEAYEEIGQRVAHIGARDILSYYGIDDPGNIDFDSLWASRTDTMGRSRLRAPFGNRSDNGELLFLDMKSLDEGGDGPHGVMSGTTGSGKSTLVRTVIESLMLSHPPEELQFVLADLKGGSAVKPFAGVPHVSRIITDLEEDQALMERFLDALWGEIARRKAICDSAGVDDAKEYNSVRARMRARGQDMAPLPMLVVVIDEFYEWFRIMPTAVDVLDSIGRQGRAYWIHLMMASQTIESRAEKLMENMGYRLVLKARTAGAAQAAGVPNAVNLPAQAGLGYFRKSLEDIIRFQAEFLWRDYFQPGVSIDGEEAPALVHSIDYIRPQLFTNSFTPLEVSVGGPDIEPVVAQPNGEVLESDDIEGGEDEDEEGVRTPKVGTVIIDQLRKIKFEPYRLWQPPLTQPVAIDDLVNRFLGRPWHKEYGSACNLVFPIGIIDRPYKHDQPPWTVDTSGPGANVLILGAGGSGKTTALQTLICSAALTHTPQQVQFYCLAYSSTALTTVSRIPHVGEVAGPTDPYGVRRTVAELLALVRERKRSFLECGIASMEMFRRRKFGGEAGPVPDDGFGDVYLVIDNYRALAEENEVLIEQVNVIINQGPSFGVHVVVTADRESELRPPVRSGFGSRIELRLAAVEDAKLVRSRFAKDVPVKPGRGMVAVNYVRLDSDPQAGLHTLVARPALGSTPDNVFECDSVVAAVSRLTSAQAPPVRRLPARFGVEQVRELASRDTRQGVGAGGIAWAISELDLAPVYLNFAENSHLMVTGRRECGRTTTLATIMSEIGRLYAPGASSAPPPAPGRPSAQVWLVDPRRQLLTALGSDYVERFAYNLDGVVAMMGELAAALAGREPPPGLSAEELLSRSWWSGPEIFLIVDDIQQLPPGFDSPLHKAVPFVNRAADVGLHVIVTRTFGGWSSAGSDPMLRALHQANAPLLVMDADPDEGFIRGKMKGGPLPRGRGLLMAEDTGVFVQVAATEVRR
notes: also called EccC5 ATPase; not shown: TwinStrep, C-terminal, kept

Legend:
Assay in all cases: cryo-EM structure
[1] = target: B2; details: both partners purified
[2] = target: the molecule itself
[3] = target: B3; details: both partners purified

Binder | binding result [1] | stoichiometry N [2] | binding result [3] | binding result [2]
B1 | binds | 6 | binds | 
B2 |  | 3 |  | 
B3 |  |  |  | binds
